The labels stand for the following.
B1: SLC6A17 (parent)
chain: HMFTPKLDKMLDPQVWREAATQVF
B2: KRT15 (parent)
chain: SNFHINVEESVDGQVVSSHKREI
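Further: lentivirally expressed fusions sorted by FACS into six bins by GFP to DsRed ratio, PSI derived from sequencing read proportions per bin multiplied by bin number.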

The variants in one series derive from B1. Put plainly: protein stability index of a GFP-peptide fusion (GPS, HEK-293T) (PSI 1-6); higher = more stable. The note with it: c terminus: a fixed tail appended.
On to HMFTPKLDKMLDPQVWRECATQVF [A19C], for which the protein stability index is 3.43. Regarding HMFTPKLDKMLDPQVWREFATQVF [A19F], the protein stability index came to 2.03. As to HMFTPKLDFMLDPQVWREAATQVF [K9F], the protein stability index worked out at 1.52.

With HMFTPKLDPMLDPQVWREAATQVF [K9P], the protein stability index was found to be 3.02. With HMFTPKLDSMLDPQVWREAATQVF [K9S], the protein stability index is 1.53.

The variants in the next series derive from B2. The description is as above. The following applies: c terminus: native.
On to SNFFINVEESVDGQVVSSHKREI [H4F], for which the protein stability index came out at 1.49. As to SNFAINVEESVDGQVVSSHKREI [H4A], the protein stability index came to 1.98. In the case of SNFDINVEESVDGQVVSSHKREI [H4D], the protein stability index came out at 2.63. As to SNFQINVEESVDGQVVSSHKREI [H4Q], the protein stability index amounted to 1.52. As to SNFNINVEESVDGQVVSSHKREI [H4N], the protein stability index is 2.09. Take SNFYINVEESVDGQVVSSHKREI [H4Y]: the protein stability index stood at 2.37. SNFSINVEESVDGQVVSSHKREI [H4S]: the protein stability index came out at 2.16.

SNFKINVEESVDGQVVSSHKREI [H4K]: the protein stability index is 1.94. Consider SNFTINVEESVDGQVVSSHKREI [H4T], for which the protein stability index amounted to 1.43. Still for that read-out and setting: to SNFRINVEESVDGQVVSSHKREI [H4R] belongs 1.6.

Regarding SNFMINVEESVDGQVVSSHKREI [H4M], the protein stability index was 1.59. Consider SNFEINVEESVDGQVVSSHKREI [H4E], for which the protein stability index is 3.18. Take SNFGINVEESVDGQVVSSHKREI [H4G]: the protein stability index worked out at 2.5. Consider SNFIINVEESVDGQVVSSHKREI [H4I], for which the protein stability index worked out at 2.12. Still for that read-out and setting: to SNFCINVEESVDGQVVSSHKREI [H4C] belongs 2.78. Take SNFVINVEESVDGQVVSSHKREI [H4V]: the protein stability index worked out at 1.03. The same measure, in the same setting: to SNFPINVEESVDGQVVSSHKREI [H4P] belongs 2.57; to SNFHANVEESVDGQVVSSHKREI [I5A], 3.14; to SNFHQNVEESVDGQVVSSHKREI [I5Q], 3.1. For SNFHSNVEESVDGQVVSSHKREI [I5S], the protein stability index was 3.06. Turning to SNFHVNVEESVDGQVVSSHKREI [I5V], the protein stability index was 3.37. Take SNFHWNVEESVDGQVVSSHKREI [I5W]: the protein stability index was determined as 1.63.

Take SNFHKNVEESVDGQVVSSHKREI [I5K]: the protein stability index came out at 2.14. The same measure, in the same setting: in the case of SNFHRNVEESVDGQVVSSHKREI [I5R] it was 2.67; in that of SNFHMNVEESVDGQVVSSHKREI [I5M], 2.59; in that of SNFHLNVEESVDGQVVSSHKREI [I5L], 1.71.

Turning to SNFHHNVEESVDGQVVSSHKREI [I5H], the protein stability index worked out at 3.01. Take SNFHGNVEESVDGQVVSSHKREI [I5G]: the protein stability index came to 2.8. Regarding SNFHYNVEESVDGQVVSSHKREI [I5Y], the protein stability index came out at 1.24. Turning to SNFHENVEESVDGQVVSSHKREI [I5E], the protein stability index amounted to 3.97. As to SNFHCNVEESVDGQVVSSHKREI [I5C], the protein stability index turned out to be 4.36. For the variant SNFHPNVEESVDGQVVSSHKREI [I5P], the protein stability index stood at 2.98. Turning to SNFHFNVEESVDGQVVSSHKREI [I5F], the protein stability index was 2.22. Same read-out and setting: in the case of SNFHTNVEESVDGQVVSSHKREI [I5T] it was 3.02. Same read-out and setting: in the case of SNFHNNVEESVDGQVVSSHKREI [I5N] it was 3.36; in that of SNFHDNVEESVDGQVVSSHKREI [I5D], 3.64. As to KNFHINVEESVDGQVVSSHKREI [S1K], the protein stability index was determined as 1.69.

On to ANFHINVEESVDGQVVSSHKREI [S1A], for which the protein stability index came out at 2.11. Regarding VNFHINVEESVDGQVVSSHKREI [S1V], the protein stability index was determined as 1.78. Regarding YNFHINVEESVDGQVVSSHKREI [S1Y], the protein stability index turned out to be 1.23. For the variant PNFHINVEESVDGQVVSSHKREI [S1P], the protein stability index is 2.35. In the case of INFHINVEESVDGQVVSSHKREI [S1I], the protein stability index was 2.56. In the case of GNFHINVEESVDGQVVSSHKREI [S1G], the protein stability index was 1.39. NNFHINVEESVDGQVVSSHKREI [S1N]: the protein stability index is 2.03. With CNFHINVEESVDGQVVSSHKREI [S1C], the protein stability index was determined as 1.57. As for DNFHINVEESVDGQVVSSHKREI [S1D], the protein stability index turned out to be 3.04. On to FNFHINVEESVDGQVVSSHKREI [S1F], for which the protein stability index stood at 3.46. Take MNFHINVEESVDGQVVSSHKREI [S1M]: the protein stability index amounted to 1.31.

Take QNFHINVEESVDGQVVSSHKREI [S1Q]: the protein stability index was found to be 1.92. The same measure, in the same setting: in the case of TNFHINVEESVDGQVVSSHKREI [S1T] it was 2.73; in that of WNFHINVEESVDGQVVSSHKREI [S1W], 2.31. On to RNFHINVEESVDGQVVSSHKREI [S1R], for which the protein stability index was 2.66. For the variant HNFHINVEESVDGQVVSSHKREI [S1H], the protein stability index came out at 2.44.

Turning to SNSHINVEESVDGQVVSSHKREI [F3S], the protein stability index came to 1.91.

As to SNNHINVEESVDGQVVSSHKREI [F3N], the protein stability index is 2.78. Same read-out and setting: in the case of SNHHINVEESVDGQVVSSHKREI [F3H] it was 3.1. For SNIHINVEESVDGQVVSSHKREI [F3I], the protein stability index was found to be 2.77.

Regarding SNAHINVEESVDGQVVSSHKREI [F3A], the protein stability index came out at 2.51. SNKHINVEESVDGQVVSSHKREI [F3K]: the protein stability index was 2.7. As to SNTHINVEESVDGQVVSSHKREI [F3T], the protein stability index is 2.69. Take SNYHINVEESVDGQVVSSHKREI [F3Y]: the protein stability index came out at 1.61.

For the variant SNPHINVEESVDGQVVSSHKREI [F3P], the protein stability index amounted to 2.15. Still for that read-out and setting: to SNLHINVEESVDGQVVSSHKREI [F3L] belongs 1.84; to SNRHINVEESVDGQVVSSHKREI [F3R], 2.87; to SNMHINVEESVDGQVVSSHKREI [F3M], 2.2. As to SNEHINVEESVDGQVVSSHKREI [F3E], the protein stability index amounted to 2.33. With SNDHINVEESVDGQVVSSHKREI [F3D], the protein stability index was determined as 3.01. Regarding SNVHINVEESVDGQVVSSHKREI [F3V], the protein stability index worked out at 2.18. With SNCHINVEESVDGQVVSSHKREI [F3C], the protein stability index came to 4.67. Regarding SNQHINVEESVDGQVVSSHKREI [F3Q], the protein stability index stood at 2.5. For the variant SGFHINVEESVDGQVVSSHKREI [N2G], the protein stability index is 1.87. Same read-out and setting: in the case of SHFHINVEESVDGQVVSSHKREI [N2H] it was 2.79; in that of SWFHINVEESVDGQVVSSHKREI [N2W], 2.14; in that of SDFHINVEESVDGQVVSSHKREI [N2D], 1.78. Turning to SCFHINVEESVDGQVVSSHKREI [N2C], the protein stability index worked out at 2.13.

Consider SIFHINVEESVDGQVVSSHKREI [N2I], for which the protein stability index came out at 2.85. For SLFHINVEESVDGQVVSSHKREI [N2L], the protein stability index came to 2.23.

As to SVFHINVEESVDGQVVSSHKREI [N2V], the protein stability index was 1.71.

SPFHINVEESVDGQVVSSHKREI [N2P]: the protein stability index was found to be 3.02. As for SKFHINVEESVDGQVVSSHKREI [N2K], the protein stability index was 1.36.

With STFHINVEESVDGQVVSSHKREI [N2T], the protein stability index was 1.9. Still for that read-out and setting: to SSFHINVEESVDGQVVSSHKREI [N2S] belongs 1.96; to SAFHINVEESVDGQVVSSHKREI [N2A], 1.57. The same measure, in the same setting: in the case of SFFHINVEESVDGQVVSSHKREI [N2F] it was 2.6; in that of SYFHINVEESVDGQVVSSHKREI [N2Y], 1.68; in that of SMFHINVEESVDGQVVSSHKREI [N2M], 2.04.

SEFHINVEESVDGQVVSSHKREI [N2E]: the protein stability index is 1.69. The same measure, in the same setting: in the case of SRFHINVEESVDGQVVSSHKREI [N2R] it was 1.39. For the variant SNFHICVEESVDGQVVSSHKREI [N6C], the protein stability index amounted to 1.9.

SNFHIEVEESVDGQVVSSHKREI [N6E]: the protein stability index amounted to 1.88. SNFHIDVEESVDGQVVSSHKREI [N6D]: the protein stability index was determined as 1.54.

Source of the values: the supplement of paper PMC10567573.
